According to article PMC4366684 (The FEBS journal, 2013):
Where a chain is given by its changes, count along the chain named. Names may count otherwise.

B1: low-specificity Escherichia coli L-threonine aldolase (eTA) (Escherichia coli K-12) (protein)
chain: MIDLRSDTVTRPSRAMLEAMMAAPVGDDVYGDDPTVNALQDYAAELSGKEAAIFLPTGTQANLVALLSHCERGEEYIVGQAAHNYLFEAGGAAVLGSIQPQPIDAAADGTLPLDKVAMKIKPDDIHFARTKLLSLENTHNGKVLPREYLKEAWEFTRERNLALHVDGARIFNAVVAYGCELKEITQYCDSFTICLSKGLGTPVGSLLVGNRDYIKRAIRWRKMTGGGMRQSGILAAAGIYALKNNVARLQEDHDNAAWMAEQLREAGADVMRQDTNMLFVRVGEENAAALGEYMKARNVLINASPIVRLVTHLDVSREQLAEVAAHWRAFLAR
B2: low-specificity Escherichia coli L-threonine aldolase (eTA) (Escherichia coli K-12; F87D) (protein)
chain: B1 chain with F87D
B3: low-specificity Escherichia coli L-threonine aldolase (eTA) (Escherichia coli K-12; H126F) (protein)
chain: B1 chain with H126F
B4: low-specificity Escherichia coli L-threonine aldolase (eTA) (Escherichia coli K-12; K222A) (protein)
chain: B1 chain with K222A
B5: low-specificity Escherichia coli L-threonine aldolase (eTA) (Escherichia coli K-12; F87A) (protein)
chain: B1 chain with F87A
B6: low-specificity Escherichia coli L-threonine aldolase (eTA) (Escherichia coli K-12; H126N) (protein)
chain: B1 chain with H126N

Columns and labels:
[1] = target: T1, low-specificity Escherichia coli L-threonine aldolase (eTA) (Escherichia coli, UniProt P75823); experiment: X-ray crystal structure, […] Å, co-crystallised with L-serine; type: binding; conditions: covalent, external aldimine with PLP; partial occupancy
[2] = target: T1, low-specificity Escherichia coli L-threonine aldolase (eTA); experiment: X-ray crystal structure, […] Å; type: binding; conditions: covalent, internal aldimine with Lys197; 1:1 per subunit
purified protein [3] = substrate: C[C@@H](O)[C@H](N)C(=O)O; experiment: purified protein; type: biochemical, Escherichia coli; conditions: 20 mM potassium phosphate, pH 7.0, 30 °C, retro-aldol cleavage
purified protein [4] = substrate: C[C@H](O)[C@H](N)C(=O)O; experiment: purified protein; type: biochemical, Escherichia coli; conditions: 20 mM potassium phosphate, pH 7.0, 30 °C, retro-aldol cleavage

Molecule	X-ray crystal structure, 2.2 Å, co-crystallised with L-serine [1]	X-ray crystal structure, 2.2 Å [2]	Km (purified protein [3])	kcat (purified protein [3])	kcat/Km (purified protein [3])	Km (purified protein [4])	kcat (purified protein [4])	kcat/Km (purified protein [4])
NCC(=O)O [glycine]	external aldimine with glycine (in which the C4’ is bound to the amino group							
Cc1ncc(COP(=O)(O)O)c(C=O)c1O [PLP]		PLP bound at their interface, forming a Schiff base (internal aldimine) with the conserved Lys197						
B1			19400 µM	1.87 s⁻¹	96.7 M⁻¹ s⁻¹	240 µM	3.55 s⁻¹	14800 M⁻¹ s⁻¹
B2						410 µM	1.95 s⁻¹	4750 M⁻¹ s⁻¹
B3						200 µM	9.02 s⁻¹	45100 M⁻¹ s⁻¹
B4						1200 µM	1.33 s⁻¹	1120 M⁻¹ s⁻¹
B5						310 µM	2.67 s⁻¹	8600 M⁻¹ s⁻¹
B6						960 µM	7.82 s⁻¹	8130 M⁻¹ s⁻¹
